This passage reports yield by MPE8 binding ELISA results from patent US20250223319A1.

In this experiment the target is F HIV-clamp (respiratory syncytial virus). Nature of the experiment: capture ELISA, 101F coat and MPE8 detection; antigen yield estimate, control.

On to MPE8 (antibody), for which the yield by MPE8 binding ELISA was 10 mg/L.
